Data: paper PMC12159680, “Nuclear protein FNBP4: A novel inhibitor of non-diaphanous formin FMN1-mediated actin cytoskeleton dynamics” (The Journal of Biological Chemistry, 2025)

T1: Extended FH2 FMN1 (mouse, UniProt Q05860 961-1466)
T1 sequence (looked up): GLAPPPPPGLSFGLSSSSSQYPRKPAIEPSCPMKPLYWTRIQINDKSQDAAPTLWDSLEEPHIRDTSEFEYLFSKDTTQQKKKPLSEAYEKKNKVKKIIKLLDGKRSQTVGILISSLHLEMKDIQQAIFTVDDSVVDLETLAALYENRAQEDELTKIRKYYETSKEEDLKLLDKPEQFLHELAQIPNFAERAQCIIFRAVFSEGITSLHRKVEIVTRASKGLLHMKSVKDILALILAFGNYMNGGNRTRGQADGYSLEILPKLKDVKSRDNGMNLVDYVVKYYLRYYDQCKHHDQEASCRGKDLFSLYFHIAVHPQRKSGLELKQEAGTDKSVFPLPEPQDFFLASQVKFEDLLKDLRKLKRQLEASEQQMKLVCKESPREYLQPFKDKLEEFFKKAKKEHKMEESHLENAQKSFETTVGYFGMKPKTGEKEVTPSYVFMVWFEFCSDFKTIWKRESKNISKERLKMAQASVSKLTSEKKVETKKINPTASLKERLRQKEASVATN


What was measured:
[1] = target: FMN1 FH1-FH2 (Mus musculus) (UniProt Q05860); details: cited from earlier work
[2] = target: T1, Extended FH2 FMN1; assay: SPR; Biacore T200; WW1-WW2 FNBP4 amine-coupled to a CM5 chip (1016.5 RU); Extended FH2 FMN1 flowed over at various concentrations; HBS-N running buffer; 25 °C; association 120 s, dissociation 380 s; global fit to a 1:1 Langmuir model; details: both partners purified

Sequence of FNBP4 WW1-WW2 (Q6ZQ03 218-637): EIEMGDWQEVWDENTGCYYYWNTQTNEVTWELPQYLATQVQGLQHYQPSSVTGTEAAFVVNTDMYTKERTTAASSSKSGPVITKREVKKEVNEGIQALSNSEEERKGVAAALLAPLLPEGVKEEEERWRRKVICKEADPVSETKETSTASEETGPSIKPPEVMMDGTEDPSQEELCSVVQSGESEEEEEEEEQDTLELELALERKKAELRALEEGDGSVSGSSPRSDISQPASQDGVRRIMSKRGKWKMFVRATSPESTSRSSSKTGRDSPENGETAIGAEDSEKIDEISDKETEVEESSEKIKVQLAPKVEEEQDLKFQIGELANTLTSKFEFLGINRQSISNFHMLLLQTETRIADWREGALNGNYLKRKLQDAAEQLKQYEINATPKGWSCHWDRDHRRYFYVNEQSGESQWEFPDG
Sequence of FMN1 FH1-FH2 (Mus musculus) (Q05860 870-1435): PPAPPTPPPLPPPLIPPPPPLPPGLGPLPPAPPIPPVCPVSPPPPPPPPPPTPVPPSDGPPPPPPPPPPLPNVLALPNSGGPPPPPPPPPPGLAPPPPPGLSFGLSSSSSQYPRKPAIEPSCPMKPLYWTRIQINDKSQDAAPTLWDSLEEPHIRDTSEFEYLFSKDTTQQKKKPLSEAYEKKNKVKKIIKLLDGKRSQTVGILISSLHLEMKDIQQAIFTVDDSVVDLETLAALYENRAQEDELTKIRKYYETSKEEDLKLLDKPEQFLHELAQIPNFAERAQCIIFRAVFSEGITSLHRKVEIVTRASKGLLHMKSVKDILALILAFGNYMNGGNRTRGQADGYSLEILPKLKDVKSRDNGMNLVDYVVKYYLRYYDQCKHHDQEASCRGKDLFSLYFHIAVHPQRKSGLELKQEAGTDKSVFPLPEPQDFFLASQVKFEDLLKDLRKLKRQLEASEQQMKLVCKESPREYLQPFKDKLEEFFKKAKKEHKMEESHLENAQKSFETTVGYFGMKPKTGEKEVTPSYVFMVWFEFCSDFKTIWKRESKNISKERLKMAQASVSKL

Row | Kd [2] | koff [2] | kon [2] | Molecule | Kd [1]
1 |  |  |  | FNBP4 WW1-WW2 (from UniProt Q6ZQ03) | 2 nM
2 | 36.5 nM | 0.000803 s⁻¹ | 22500 M⁻¹ s⁻¹ | N-terminal WW1-WW2 FNBP4 (domain or fragment, human, UniProt Q8N3X1 214-629, looked up) GIEMGDWQEVWDENTGCYYYWNTQTNEVTWELPQYLATQVQGLQHYQPSSVPGAETSFVVNTDIYSKEKTISVSSSKSGPVIAKREVKKEVNEGIQALSNSEEEKKGVAASLLAPLLPEGIKEEEERWRRKVICKEEPVSEVKETSTTVEEATTIVKPQEIMLDNIEDPSQEDLCSVVQSGESEEEEEQDTLELELVLERKKAELRALEEGDGSVSGSSPRSDISQPASQDGMRRLMSKRGKWKMFVRATSPESTSRSSSKTGRDTPENGETAIGAENSEKIDENSDKEMEVEESPEKIKVQTTPKVEEEQDLKFQIGELANTLTSKFEFLGINRQSISNFHVLLLQTETRIADWREGALNGNYLKRKLQDAAEQLKQYEINATPKGWSCHWDRDHRRYFYVNEQSGESQWEFPDG | 
